T1: human EphA6 extracellular region-SEAP-His protein (human, UniProt Q9UF33 23-550)
T1 construct: extracellular domain; also called hEphA6-SEAP-His
T1 sequence (looked up): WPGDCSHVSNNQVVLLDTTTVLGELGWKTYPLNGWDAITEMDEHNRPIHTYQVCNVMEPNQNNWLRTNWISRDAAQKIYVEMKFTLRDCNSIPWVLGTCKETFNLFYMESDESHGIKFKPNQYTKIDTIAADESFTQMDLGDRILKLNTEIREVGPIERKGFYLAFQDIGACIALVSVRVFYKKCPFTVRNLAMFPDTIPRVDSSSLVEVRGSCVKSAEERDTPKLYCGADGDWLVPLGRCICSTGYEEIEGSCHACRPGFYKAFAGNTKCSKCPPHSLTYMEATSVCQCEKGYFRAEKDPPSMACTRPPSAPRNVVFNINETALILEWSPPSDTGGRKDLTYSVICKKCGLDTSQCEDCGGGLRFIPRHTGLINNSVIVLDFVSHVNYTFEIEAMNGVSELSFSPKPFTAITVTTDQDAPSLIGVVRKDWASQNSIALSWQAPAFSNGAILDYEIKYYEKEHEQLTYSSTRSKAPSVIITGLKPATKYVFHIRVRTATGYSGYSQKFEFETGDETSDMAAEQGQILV

T2: human EphA8 extracellular region-SEAP-His protein (human, UniProt P29322 28-542)
T2 construct: extracellular domain; also called hEphA8-SEAP-His
T2 sequence (looked up): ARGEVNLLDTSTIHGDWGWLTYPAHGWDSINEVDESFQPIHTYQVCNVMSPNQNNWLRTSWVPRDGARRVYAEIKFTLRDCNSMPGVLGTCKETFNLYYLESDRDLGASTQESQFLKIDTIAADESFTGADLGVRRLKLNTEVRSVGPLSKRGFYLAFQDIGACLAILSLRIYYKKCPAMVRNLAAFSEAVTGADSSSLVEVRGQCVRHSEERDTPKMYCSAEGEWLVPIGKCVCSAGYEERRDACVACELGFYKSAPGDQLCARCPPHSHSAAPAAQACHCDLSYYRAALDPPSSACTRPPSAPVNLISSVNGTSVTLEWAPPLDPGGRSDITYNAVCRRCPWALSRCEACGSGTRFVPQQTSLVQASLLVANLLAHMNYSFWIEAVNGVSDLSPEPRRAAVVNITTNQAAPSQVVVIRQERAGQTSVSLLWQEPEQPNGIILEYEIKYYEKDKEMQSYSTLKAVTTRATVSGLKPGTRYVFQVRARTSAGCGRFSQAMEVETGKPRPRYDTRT

T3: human EphA10 extracellular region-SEAP-His protein (human, UniProt Q5JZY3 34-565)
T3 construct: extracellular domain; also called hEphA10-SEAP-His
T3 sequence (looked up): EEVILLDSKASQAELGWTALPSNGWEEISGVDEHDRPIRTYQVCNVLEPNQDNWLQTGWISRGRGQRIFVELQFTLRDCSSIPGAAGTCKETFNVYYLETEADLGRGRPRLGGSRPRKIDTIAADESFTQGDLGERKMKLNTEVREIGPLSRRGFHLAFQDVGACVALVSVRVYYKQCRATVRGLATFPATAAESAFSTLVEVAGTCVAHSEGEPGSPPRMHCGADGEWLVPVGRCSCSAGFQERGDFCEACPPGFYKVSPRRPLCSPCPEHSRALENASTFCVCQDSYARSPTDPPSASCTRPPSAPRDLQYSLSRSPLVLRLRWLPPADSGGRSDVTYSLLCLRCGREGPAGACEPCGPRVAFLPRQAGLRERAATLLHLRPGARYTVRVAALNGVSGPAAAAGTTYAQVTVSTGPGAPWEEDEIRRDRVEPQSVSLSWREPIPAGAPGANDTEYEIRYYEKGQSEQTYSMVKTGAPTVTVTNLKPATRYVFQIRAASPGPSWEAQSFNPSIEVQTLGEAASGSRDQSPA


Columns and labels:
Assay in all cases: ELISA
[1] = target: T4, human EphA2 extracellular region-SEAP-His protein (human, UniProt P29317 24-537)
T4 construct: extracellular domain; also called hEphA2-SEAP-His

[2] = target: T1, human EphA6 extracellular …
[3] = target: T2, human EphA8 extracellular …
[4] = target: T3, human EphA10 extracellular …
[5] = target: T5, human EphA4 extracellular region-SEAP-His protein (human, UniProt P54764 20-547)
T5 construct: also called hEphA4-SEAP-His
T5 sequence (P54764 20-547): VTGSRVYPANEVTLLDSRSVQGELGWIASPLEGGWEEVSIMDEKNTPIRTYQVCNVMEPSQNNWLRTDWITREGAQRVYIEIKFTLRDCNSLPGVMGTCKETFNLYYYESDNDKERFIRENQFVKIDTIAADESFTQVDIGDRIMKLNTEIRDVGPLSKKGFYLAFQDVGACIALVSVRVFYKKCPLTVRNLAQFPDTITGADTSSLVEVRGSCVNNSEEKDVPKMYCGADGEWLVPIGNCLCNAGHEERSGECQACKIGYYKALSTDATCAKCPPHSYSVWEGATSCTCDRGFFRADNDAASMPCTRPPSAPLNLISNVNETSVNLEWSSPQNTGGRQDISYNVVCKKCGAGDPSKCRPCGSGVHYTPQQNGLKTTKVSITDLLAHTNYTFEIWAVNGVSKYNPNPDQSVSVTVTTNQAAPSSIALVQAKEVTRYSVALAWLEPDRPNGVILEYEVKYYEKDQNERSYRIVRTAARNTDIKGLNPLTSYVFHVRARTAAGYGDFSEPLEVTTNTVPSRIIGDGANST

T4 sequence (P29317 24-537): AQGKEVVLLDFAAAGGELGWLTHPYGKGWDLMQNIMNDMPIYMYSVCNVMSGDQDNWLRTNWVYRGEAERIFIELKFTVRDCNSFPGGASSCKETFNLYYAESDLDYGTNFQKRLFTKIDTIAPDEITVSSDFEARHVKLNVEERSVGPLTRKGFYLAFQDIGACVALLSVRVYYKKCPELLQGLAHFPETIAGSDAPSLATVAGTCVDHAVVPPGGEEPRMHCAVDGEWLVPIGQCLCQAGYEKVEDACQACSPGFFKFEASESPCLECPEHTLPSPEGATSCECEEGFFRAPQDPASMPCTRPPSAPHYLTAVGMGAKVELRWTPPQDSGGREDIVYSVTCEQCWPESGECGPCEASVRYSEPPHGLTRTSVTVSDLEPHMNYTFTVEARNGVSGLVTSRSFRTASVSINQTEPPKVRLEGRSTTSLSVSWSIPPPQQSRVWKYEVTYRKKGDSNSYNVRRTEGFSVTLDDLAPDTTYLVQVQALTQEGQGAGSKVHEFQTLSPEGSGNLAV

| Binder | A450 as % of hEphA4-SEAP-His [1] [%] | A450 as % of hEphA4-SEAP-His [2] [%] | A450 as % of hEphA4-SEAP-His [3] [%] | A450 as % of hEphA4-SEAP-His [4] [%] | A450 as % of hEphA4-SEAP-His [5] [%] |
| --- | --- | --- | --- | --- | --- |
| humanized antibody No. 76 (antibody, human IgG1, kappa, human Ig kappa; also called L1-4/HA2) heavy: QVQLVQSGSELKKPGASVKVSCKASGYTFTDYSMHWVRQAPGQGLKWMGWINTETGEPTYAQGFTGRFVFSLDTSVSTAYLQISSLKAEDTAVYYCARIPLYYYGSRYWYFDVWGQGTTVTVSSASTKGPSVFPLAPSSKSTSGGTAALGCLVKDYFPEPVTVSWNSGALTSGVHTFPAVLQSSGLYSLSSVVTVPSSSLGTQTYICNVNHKPSNTKVDKRVEPKSCDKTHTCPPCPAPPAAAPSVFLFPPKPKDTLMISRTPEVTCVVVDVSHEDPEVQFNWYVDGVEVHNAKTKPREEQFNSTFRVVSVLTVVHQDWLNGKEYKCKVSNKGLPAPIEKTISKTKGQPREPQVYTLPPSREEMTKNQVSLTCLVKGFYPSDIAVEWESNGQPENNYKTTPPMLDSDGSFFLYSKLTVDKSRWQQGNVFSCSVMHEALHNHYTQKSLSLSPG light: DIQMTQSPSSLSASVGDRVTITCRASENIYRNLAWYQQKPGKAPKLLVYAATNLADGVPSRFSGSGSGTDYTLTISSLQPEDFATYYCQHFWGTPWTFGQGTKVEIKRTVAAPSVFIFPPSDEQLKSGTASVVCLLNNFYPREAKVQWKVDNALQSGNSQESVTEQDSKDSTYSLSSTLTLSKADYEKHKVYACEVTHQGLSSPVTKSFNRGEC | 4.8 | 7.9 | 5.5 | 4.7 | 100 |
| humanized antibody No. 67 (antibody, human IgG1, kappa, human Ig kappa; also called L1-4/HA4) heavy: QIQLVQSGSELKKPGASVKVSCKASGYTFTDYSMHWVRQAPGQGLKWMGWINTETGEPTYAQGFTGRFVFSLDTSVSTAYLQISSLKAEDTAVYYCARIPLYYYGSRYWYFDVWGQGTTVTVSSASTKGPSVFPLAPSSKSTSGGTAALGCLVKDYFPEPVTVSWNSGALTSGVHTFPAVLQSSGLYSLSSVVTVPSSSLGTQTYICNVNHKPSNTKVDKRVEPKSCDKTHTCPPCPAPPAAAPSVFLFPPKPKDTLMISRTPEVTCVVVDVSHEDPEVQFNWYVDGVEVHNAKTKPREEQFNSTFRVVSVLTVVHQDWLNGKEYKCKVSNKGLPAPIEKTISKTKGQPREPQVYTLPPSREEMTKNQVSLTCLVKGFYPSDIAVEWESNGQPENNYKTTPPMLDSDGSFFLYSKLTVDKSRWQQGNVFSCSVMHEALHNHYTQKSLSLSPG light: DIQMTQSPSSLSASVGDRVTITCRASENIYRNLAWYQQKPGKAPKLLVYAATNLADGVPSRFSGSGSGTDYTLTISSLQPEDFATYYCQHFWGTPWTFGQGTKVEIKRTVAAPSVFIFPPSDEQLKSGTASVVCLLNNFYPREAKVQWKVDNALQSGNSQESVTEQDSKDSTYSLSSTLTLSKADYEKHKVYACEVTHQGLSSPVTKSFNRGEC | 4.6 | 7.3 | 4.7 | 4.6 | 100 |
| humanized antibody No. 69 (antibody, human IgG1, kappa, human Ig kappa; also called L1-4/HK4) heavy: QIQLVQSGSELKKPGASVKVSCKASGYTFTDYSMHWVRQAPGQGLKWMGWINTETGEPTYADDFKGRFVFSLDTSVSTAYLQISSLKAEDTAVYYCARIPLYYYGSRYWYFDVWGQGTTVTVSSASTKGPSVFPLAPSSKSTSGGTAALGCLVKDYFPEPVTVSWNSGALTSGVHTFPAVLQSSGLYSLSSVVTVPSSSLGTQTYICNVNHKPSNTKVDKRVEPKSCDKTHTCPPCPAPPAAAPSVFLFPPKPKDTLMISRTPEVTCVVVDVSHEDPEVQFNWYVDGVEVHNAKTKPREEQFNSTFRVVSVLTVVHQDWLNGKEYKCKVSNKGLPAPIEKTISKTKGQPREPQVYTLPPSREEMTKNQVSLTCLVKGFYPSDIAVEWESNGQPENNYKTTPPMLDSDGSFFLYSKLTVDKSRWQQGNVFSCSVMHEALHNHYTQKSLSLSPG light: DIQMTQSPSSLSASVGDRVTITCRASENIYRNLAWYQQKPGKAPKLLVYAATNLADGVPSRFSGSGSGTDYTLTISSLQPEDFATYYCQHFWGTPWTFGQGTKVEIKRTVAAPSVFIFPPSDEQLKSGTASVVCLLNNFYPREAKVQWKVDNALQSGNSQESVTEQDSKDSTYSLSSTLTLSKADYEKHKVYACEVTHQGLSSPVTKSFNRGEC | 5.5 | 9.5 | 5.5 | 5.4 | 100 |

Now from value to binder:

| A450 as % of hEphA4-SEAP-His [1] [%] | A450 as % of hEphA4-SEAP-His [2] [%] | A450 as % of hEphA4-SEAP-His [3] [%] | A450 as % of hEphA4-SEAP-His [4] [%] | A450 as % of hEphA4-SEAP-His [5] [%] | Binder |
| --- | --- | --- | --- | --- | --- |
| 4.6 | 8.3 | 4.8 | 4.4 | 100 | humanized antibody No. 75 (antibody, human IgG1, kappa, constant region: human IgG1 CH1 and hinge, human IgG2 CH2 and CH3 with V234A, G237A, no C-terminal Lys; human Ig kappa; also called L1-4/HA1) heavy: QVQLVQSGSELKKPGASVKVSCKASGYTFTDYSMHWVRQAPGQGLEWMGWINTETGEPTYAQGFTGRFVFSLDTSVSTAYLQISSLKAEDTAVYYCARIPLYYYGSRYWYFDVWGQGTTVTVSSASTKGPSVFPLAPSSKSTSGGTAALGCLVKDYFPEPVTVSWNSGALTSGVHTFPAVLQSSGLYSLSSVVTVPSSSLGTQTYICNVNHKPSNTKVDKRVEPKSCDKTHTCPPCPAPPAAAPSVFLFPPKPKDTLMISRTPEVTCVVVDVSHEDPEVQFNWYVDGVEVHNAKTKPREEQFNSTFRVVSVLTVVHQDWLNGKEYKCKVSNKGLPAPIEKTISKTKGQPREPQVYTLPPSREEMTKNQVSLTCLVKGFYPSDIAVEWESNGQPENNYKTTPPMLDSDGSFFLYSKLTVDKSRWQQGNVFSCSVMHEALHNHYTQKSLSLSPG light: DIQMTQSPSSLSASVGDRVTITCRASENIYRNLAWYQQKPGKAPKLLVYAATNLADGVPSRFSGSGSGTDYTLTISSLQPEDFATYYCQHFWGTPWTFGQGTKVEIKRTVAAPSVFIFPPSDEQLKSGTASVVCLLNNFYPREAKVQWKVDNALQSGNSQESVTEQDSKDSTYSLSSTLTLSKADYEKHKVYACEVTHQGLSSPVTKSFNRGEC |
| 4.5 | 6 | 4.8 | 4.5 | 100 | humanized antibody No. 77 (antibody, human IgG1, kappa, human Ig kappa; also called L1-4/HK1) heavy: QVQLVQSGSELKKPGASVKVSCKASGYTFTDYSMHWVRQAPGQGLEWMGWINTETGEPTYADDFKGRFVFSLDTSVSTAYLQISSLKAEDTAVYYCARIPLYYYGSRYWYFDVWGQGTTVTVSSASTKGPSVFPLAPSSKSTSGGTAALGCLVKDYFPEPVTVSWNSGALTSGVHTFPAVLQSSGLYSLSSVVTVPSSSLGTQTYICNVNHKPSNTKVDKRVEPKSCDKTHTCPPCPAPPAAAPSVFLFPPKPKDTLMISRTPEVTCVVVDVSHEDPEVQFNWYVDGVEVHNAKTKPREEQFNSTFRVVSVLTVVHQDWLNGKEYKCKVSNKGLPAPIEKTISKTKGQPREPQVYTLPPSREEMTKNQVSLTCLVKGFYPSDIAVEWESNGQPENNYKTTPPMLDSDGSFFLYSKLTVDKSRWQQGNVFSCSVMHEALHNHYTQKSLSLSPG light: DIQMTQSPSSLSASVGDRVTITCRASENIYRNLAWYQQKPGKAPKLLVYAATNLADGVPSRFSGSGSGTDYTLTISSLQPEDFATYYCQHFWGTPWTFGQGTKVEIKRTVAAPSVFIFPPSDEQLKSGTASVVCLLNNFYPREAKVQWKVDNALQSGNSQESVTEQDSKDSTYSLSSTLTLSKADYEKHKVYACEVTHQGLSSPVTKSFNRGEC |

Source: US20190077860A1 (EISAI R AND D MANAGEMENT, published 2019)
